Changes are numbered by the printed parent chain.
B1: 16K15-xiIgG (antibody, V domains shown)
VH: EVMLVESGGGLVRPGGSLKLSCAGSGITLSTYAMSWVRQTPERRLEWVASIISGGITYYLDSVKGRFTISRDNARNILYLQMSSLRSEDTAIYYCARKYHGNALDYWGQGTSVTVSL
VL: DIVMTQSPSSLPVTAGETVTMRCKSSQSLLNSGNQRNYLTWYQRKPGQPPKKLIYWASTRESGVPDRFTGSGSGTDFTLTISGVQAEDLAVYYCQNNYFYPLTFGAGTKLELKR
notes: Murine variable regions on human IgG1 / kappa constant regions; also called 16K15 chimeric antibody
B2: 16K15-hz11 (antibody, human IgG1, V domains shown)
VH: EVQLVESGGGLVQPGGSLRLSCAGSGITLSTYAMSWVRQAPGKGLEWVSSIISGGITYYLDSVKGRFTISRDNAKNSLYLQMNSLRAEDTAVYYCARKYHGNALDYWGQGTLVTVSS
VL: DIVMTQSPDSLAVSLGERATINCKSSQSLLNSGNQRNYLTWYQQKPGQPPKKLIYWASTRESGVPDRFSGSGSGTDFTLTISSLQAEDLAVYYCQNNYFYPLTFGQGTKLEIKR
notes: Only positions of reverse mutations are printed; copies: 2 + 2
B3: 16K15-hz00 (antibody, human IgG1, V domains shown)
VH: B2 VH with G24A
VL: DIVMTQSPDSLAVSLGERATINCKSSQSLLNSGNQRNYLTWYQQKPGQPPKLLIYWASTRESGVPDRFSGSGSGTDFTLTISSLQAEDVAVYYCQNNYFYPLTFGQGTKLEIK
notes: Humanized (direct CDR graft)
B4: 8K13-xiIgG (antibody, V domains shown)
VH: QVHLQQSGAELVRPGSSVKISCKASGYAFSNYWMNWVRQRPGQGLEWIGQIYPGNGDTKYSGKFNSKDTLTADKSSNTAYMQLNSLTSEDSAVYFCARFYYGNVMDYWGQGTSVTVSS
VL: DIVLTQSPSSLTVTAGEKVTMSCKSSQTLLNGGNQKNYLTWYQQKSGQPPKLLIYWASTRESGVPDRFTGSGSGTDFTLTISSVQAEDLAVYYCQNGYSYPLTFGVGTKLELKR
notes: Murine variable regions on human IgG1 / kappa constant regions; also called 8K13 chimeric antibody
B5: 52E22-xiIgG (antibody, V domains shown)
VH: QIQLVQSGPELKKPGETVKISCKASGYTLTNYGMNWVRQAPGKGLKWMGWIRPNTGEPTYAEDFKGRFVFSLETSAATAYLQITNLKSEDTSTYFCARLYRGNTLDNWGQGTSVIVSS
VL: DIVMTQSPSSLTVTTGEKVTMSCKSSQNLLNSGNQRNYLTWYQQKPGQSPKLLIYWASTRESGVPYRFTGSGSGTDFTLTISSVQTDDLAIYYCQNGYSFPFTFGSGTKLEIKR
notes: Murine variable regions on human IgG1 / kappa constant regions; also called 52E22 chimeric antibody
B6: 52E22-hz12 (antibody, human IgG1, V domains shown)
VH: QIQLVQSGSELKKPGASVKVSCKASGYTLTNYGMNWVRQAPGQGLEWMGWIRPNTGEPTYAEDFKGRFVFSLDTSVATAYLQITSLKAEDTAVYYCARLYRGNTLDNWGQGTLVTVSS
VL: B3 VL with S28N, N31S, V89L, N96Q, N97G, F99S, Y100F, L102F
notes: Humanized; also called 52E22-hz12 IgG; 52E22-12 IgG
B7: 8K13-hz24 (antibody, human IgG1, V domains shown)
VH: QVQLVQSGAEVKKPGSSVKVSCKASGYAFSNYWMNWVRQAPGQGLEWMGQIYPGSGDTKYSGKFQSRVTITADKSTNTAYMELSSLRSEDTAVYYCARFYYGNVMDYWGQGTLVTVSS
VL: B3 VL with M4L, S28T, N31S, S32G, R36K, V89L, N96Q, N97G, F99S
notes: Humanized; also called 8K13-hz24 IgG; 8K13-24 IgG
B8: murine antibody 48G12 (antibody, V domains shown)
VH: EVQLRQSGPELVKPGASVKMSCKASGYTFTTYIINWVKQKPGQGLEWIGYINPYNDDTRYNERVKGKATLTSDKSSSTAYMELSSLTSEDSAVYYCARFYFGNSFTYWGQGTLVTVSA
VL: DIVMTQSPSSLPVTVGERVTMTCKSSQGLFNSGNQRNYLTWYQQKPGQPPKLLIYWASTRESGVPDRFTGSGSGTDFTLTISSVQAEDLAIYYCQNNYIYPLTFGAGTKLELK
notes: Mouse hybridoma antibody (supernatant)
B9: murine antibody 50C14 (antibody, V domains shown)
VH: B8 VH with D57G, Y100H
VL: B8 VL with V15T, R18K, S32N, T69I, Y100F
notes: as for B8
B10: 8K13-hz00 (antibody, human IgG1, V domains shown)
VH: B7 VH with S55N, Q65N, K74E, N77S
VL: B3 VL with S28T, S32G, R36K, N97G, F99S
notes: Humanized (direct CDR graft)
B11: 8K13-hz11 (antibody, V domains shown)
VH: B7 VH with S55N, Q65N
VL: B3 VL with M4L, S28T, S32G, R36K, V89L, N97G, F99S
B12: 52E22-hz11 (antibody, human IgG1, V domains shown)
VH: B6 VH
VL: B2 VL with S28N, K52L, N97G, F99S, Y100F, L102F
notes: Only the position of the reverse mutation is printed; copies: 2 + 2
B13: 52E22-hz00 (antibody, human IgG1, V domains shown)
VH: B6 VH with I2V, A77S, T84C
VL: B3 VL with S28N, N97G, F99S, Y100F, L102F
notes: Humanized (direct CDR graft)

These binders were tested against T1, antigen human CLDN18.2, His-tagged (human, UniProt P56856-2 1-261, limits assumed) (assay: BLI (Fortebio), His-tagged antigen on NTA probe; ratio to 16K15-xiIgG).
T1 construct: Recombinant antigen used in the Fortebio assay (His-tagged, captured on NTA probe); also called His-tagged antigen; not shown: His tag
Method: (§1) The binding kinetic parameters of the chimeric antibodies and the humanized antibodies thereof to the antigen human CLDN18.2 were analyzed by a Fortebio (BLITZ pro1.1.0.28) instrument. Before performing the assay, an NTA bioprobe was soaked in PBS for 10 min, and the probe was then placed in PBS containing 100 nM antigen for 300 s to capture the His-tagged antigen. The probe was further subjected to a binding reaction with 100 nM antibody for a binding time of 400 s, and the probe was then transferred to PBS and subjected to a dissociation reaction for 600 s. When the assay was finished, data from which the response value of a blank control had been deducted were fitted to a 1:1 Langmuir binding model using software, and then the kinetic constants for antigen-antibody binding were calculated.

Koff/Koff(Xi-IgG)	Binder
1	B1
0.65	B2
0.14	B3

Each binder was assayed against T1, antigen human CLDN18.2, His-tagged (assay: SPR (BIAcore), antibody captured by anti-human Fc, antigen as analyte).
Method: Referring to the instructions provided in the Human Antibody Capture Kit (cat No. BR-1008-39, Lot 10261753) from GE Healthcare, the analytical channel and the control sample channel on a CM5 sensor chip were first saturated and coupled with the maximum amount of anti-human Fc antibody, then buffers containing anti-human CLDN18.2 chimeric antibodies, humanized antibodies or a control antibody IMAB362 at 7.5 μg/ml were allowed to flow through the analytical channel and uniformly distribute. Finally, antigen samples diluted in gradient (the initial concentration was 20 nM and diluted by 1:3 to get 8 concentrations, and the concentration 0.741 nM was set to be repeated) were allowed to flow through both the analytical channel and the sample channel, and the photoreactions upon the binding of antibody to antigen were measured. Subsequently, the association constant Kon and dissociation constant Koff and affinity constant KD of each antibody were finally obtained by instrument software fitting analysis.

Kd	koff	kon	Binder
6990 pM	0.000573 s⁻¹	81900 M⁻¹ s⁻¹	B4
13500 pM	0.00144 s⁻¹	107000 M⁻¹ s⁻¹	B1
1110 pM	0.000545 s⁻¹	490000 M⁻¹ s⁻¹	B5
1180 pM	0.000172 s⁻¹	146000 M⁻¹ s⁻¹	B6
28500 pM	0.00202 s⁻¹	70900 M⁻¹ s⁻¹	B7

The binders below were run against T2, human CLDN18.2 expressed on cell surfaces (human, UniProt P56856-2 1-261) (assay: FACS of hybridoma supernatants on CHOK1 cells).
T2 construct: whole, on cells; also called CHOK1 cells stably expressing human CLDN18.2
Method: Balb/c mice were immunized with CHOK1 cells stably expressing human CLDN18.2 protein on cell surfaces. One month later, sera from the mice were analyzed by flow cytometry (FACS), and spleens were taken from mice having high antibody titers in sera. The spleen cells isolated by standard methods were fused with myeloma cells P3X63Ag8.653 using PEG or electrofusion methods. The fused hybridoma cells were seeded in 384 well plates, and after 10-14 days of culture, supernatants obtained were analyzed by FACS for antibody secretion by the hybridoma cells. Several clones were obtained that were able to bind to CHOK1 cells stably expressing human CLDN18.2 protein on cell surfaces and were not able to bind to CHOK1 cells stably expressing human CLDN18.1 protein on cell surfaces. Single cells of the obtained clones were obtained by Limiting Dilution, and each of the monoclonal hybridoma cell clones obtained after being diluted three times secreted only one antibody.

binding result	Binder
binds	B8
binds	B9

Each binder was assayed against T2, human CLDN18.2 expressed on cell … (assay: cell-based or functional assay).

ADCC reporter EC50 (Jurkat NFAT-luciferase effector cells), CHOK1 target cells	ADCC reporter EC50 (Jurkat NFAT-luciferase effector cells), BxPC3 target cells	ADCC reporter EC50 (Jurkat NFAT-luciferase effector cells), NCI-N87 target cells	Binder
567 pM	–	–	B6
589 pM	304 pM	150 pM	B7

Target: T2, human CLDN18.2 expressed on cell …
Experiment: cell-based or functional assay
Remark: another data set of the same source

CDC EC50, CHOK1 cells stably expressing human CLDN18.2 (CCK-8)	CDC EC50, BxPC3 cells stably expressing human CLDN18.2 (CCK-8)	CDC EC50, NCI-N87 cells stably expressing human CLDN18.2 (CCK-8)	Binder
2080 pM	–	–	B6
21300 pM	28500 pM	57700 pM	B7

The binders below were run against T1, antigen human CLDN18.2, His-tagged (assay: BLI (Fortebio), His-tagged antigen on NTA probe; ratio to 8K13-xiIgG).
Method: as §1

Koff/Koff(Xi-IgG)	Binder
1	B4
1.74	B10
0.59	B11
3.5	B7

These binders were tested against T1, antigen human CLDN18.2, His-tagged (assay: BLI (Fortebio), His-tagged antigen on NTA probe, 100 nM antibody, 1:1 fit).
Method: as §1

Kd	Response	koff	kon	Binder
382 pM	0.134	0.000114 s⁻¹	298000 M⁻¹ s⁻¹	B4
557 pM	0.261	0.000154 s⁻¹	276000 M⁻¹ s⁻¹	B1
99.6 pM	0.223	3.55e-05 s⁻¹	357000 M⁻¹ s⁻¹	B5
535 pM	0.17	0.0001 s⁻¹	188000 M⁻¹ s⁻¹	B2
542 pM	0.238	0.000197 s⁻¹	363000 M⁻¹ s⁻¹	B12
744 pM	0.133	0.000198 s⁻¹	266000 M⁻¹ s⁻¹	B10
297 pM	0.139	6.73e-05 s⁻¹	227000 M⁻¹ s⁻¹	B11
89.5 pM	0.176	2.15e-05 s⁻¹	240000 M⁻¹ s⁻¹	B3
309 pM	0.188	6.11e-05 s⁻¹	198000 M⁻¹ s⁻¹	B13
360 pM	0.226	7.83e-05 s⁻¹	218000 M⁻¹ s⁻¹	B6
1510 pM	0.133	0.000399 s⁻¹	264000 M⁻¹ s⁻¹	B7

These binders were tested against T1, antigen human CLDN18.2, His-tagged (assay: BLI (Fortebio), His-tagged antigen on NTA probe; ratio to 52E22-xiIgG).
Method: as §1

Koff/Koff(Xi-IgG)	Binder
1	B5
5.55	B12
1.72	B13
2.21	B6

— patent publication US20230250168A1 (MABWELL SHANGHAI BIOSCIENCE, published 2023)
